Source: article PMC9118924

target: arrestin-3 fused to nanoluciferase (UniProt P32121); assay: arrestin-3 interaction assay (hGPR84-eYFP with arrestin-3-nanoluciferase), 2-HTP concentration-response; conditions: value read at the highest 2-HTP concentration, Log [2-HTP] M = -4; parent: est. 100; read off a plot

| Substance | percent of parent |
| --- | --- |
| FLAG-human GPR84-eYFP (from UniProt Q9NQS5) pmIL3-Ct (all 21 serines/threonines of the third intracellular loop and the two serines of the C-terminal tail converted to alanine; positions not printed legibly) | 28 % of WT |
| FLAG-human GPR84-eYFP (from UniProt Q9NQS5) pmIL3 (all 21 serine and threonine residues of the third intracellular loop converted to alanine; positions not printed legibly) | 28 % of WT |
| FLAG-human GPR84-eYFP (from UniProt Q9NQS5) pmCt (the two serine residues of the C-terminal tail converted to alanine; positions not printed legibly) | 75 % of WT |
